Experimental data taken from paper PMC9161685.

Molecular target: SARS-CoV-2 main protease (M^pro) triple mutant (Cys85Ser|Cys156Ser|Cys300Ser), (His)6-tagged (SARS-CoV-2)
Assay: SEC-MALS

SARS-CoV-2 main protease (M^pro) triple mutant (Cys85Ser|Cys156Ser|Cys300Ser), (His)6-tagged (enzyme)
stoichiometry N: 2
